Laboratory results from PMC3234718.
Blank lines part the entries; values can stand above or below the molecule they belong to.

How the values were obtained:
Assay in all cases: SPR
[1] = biological target: C-propeptide trimer of human procollagen III (CPIII) (human) (UniProt P02461)
CPIII-His (human) = CPIII-His (human) (UniProt P02461)
[2] = biological target: mini-procollagen III N306Q (human)

KD(1) (heterogeneous ligand model, site 1) [1]: 4.6 nM
KD(2) (heterogeneous ligand model, site 2) [1]: 28 nM
KD(1) (heterogeneous ligand model, site 1) (CPIII-His (human)): 12.8 nM
KD(2) (heterogeneous ligand model, site 2) (CPIII-His (human)): 27 nM
KD(1) (heterogeneous ligand model, site 1) [2]: 0.74 nM
KD(2) (heterogeneous ligand model, site 2) [2]: 12.6 nM
Molecule: CUB1-CUB2 (minimal active fragment of PCPE-1) (domain or fragment)

KD(1) (heterogeneous ligand model, site 1) [1]: 4.7 nM
KD(2) (heterogeneous ligand model, site 2) [1]: 17 nM
KD(1) (heterogeneous ligand model, site 1) (CPIII-His (human)): 5.9 nM
KD(2) (heterogeneous ligand model, site 2) (CPIII-His (human)): 15 nM
KD(1) (heterogeneous ligand model, site 1) [2]: 0.66 nM
KD(2) (heterogeneous ligand model, site 2) [2]: 10 nM
B1: procollagen C-proteinase enhancer-1 (PCPE-1) (natural protein)
chain: QTPNYTRPVFLCGGDVKGESGYVASEGFPNLYPPNKECIWTITVPEGQTVSLSFRVFDLELHPACRYDALEVFAGSGTSGQRLGRFCGTFRPAPLVAPGNQVTLRMTTDEGTGGRGFLLWYSGRATSGTEHQFCGGRLEKAQGTLTTPNWPESDYPPGISCSWHIIAPPDQVIALTFEKFDLEPDTYCRYDSVSVFNGAVSDDSRRLGKFCGDAVPGSISSEGNELLVQFVSDLSVTADGFSASYKTLPRGTAKEGQGPGPKRGTEPKVKLPPKSQPPEKTEESPSAPDAPTCPKQCRRTGTLQSNFCASSLVVTATVKSMVREPGEGLAVTVSLIGAYKTGGLDLPSPPTGASLKFYVPCKQCPPMKKGVSYLLMGQVEENRGPVLPPESFVVLHRPNQDQILTNLSKRKCPSQPVRAAASQD
